Assay results from the DeepSol protein solubility set.

assay: soluble on expression in E. coli; label from the status in PepcDB or PDB records

Row | Sequence | soluble on expression in E. coli
1 | ADPDVLTEVPAALKRLAKYVIRGFYGIEHALALDILIRNSCVKEEDMLELLKFDRKQLRSVLNNLKGDKFIKCRMRVETAADGKTTRHNYYFINYRTLVNVVKYKLDHMRRRIETDERDSTNRASFKCPVCSSTFTDLEANQLFDPMTGTFRCTFCHTEVEEDESAMPKKDARTLLARFNEQIEPIYALLRETEDVNLAYEILEPEPTEIPALKQSKDHAATTAGAASLAGGHHREAWATKGPSYEDLYTQNVVINMDDQEDLHRASLEGKSAKERPIWLRESTVQGAYGSEDMKEGGIDMDAFQEREEGHAGPDDNEEVMRALLIHEKKTSSAMAGSVGAAAPVTAANGDDSESETSESDDDSPPRPAAVAVHKREEDEEEDDEFEEVADDPIVMVAGRPFSYSEVSQRPELVAQMTPEEKEAYIAMGQRMFEDLFE | not soluble
2 | MTIYFKNGFYDDTLGGIPEGAVAVRAEEYAALLAGQAQGGQIAADSDGRPVLTPPRPSDYHEWDGKKWKISKAAAAARFAKQKTALAFRLAEKADELKNSLLAGYPQVEIDSFYRQEKEALARQADNNAPTPMLAQIAAARGVELDVLIEKVIEKSARLAVAAGAIIGKRQQLEDKLNTIETAPGLDALEKEIEEWTLNIG | not soluble
3 | MEKKYRKEPVEIPPEIAETAAGGKVPETDVTEQYPQMEEMNGTEAAGEMPQIGPMYPIPQVPAQPTEPAQQMGQMPCMQPIPQMVPVVCCPFLLQMHCPMMPMDYSSMSHPTYQTAPQAMPQTMQAVPQPATPAQYAPGPCGSPYYPQHSGSPCGYGSDMYDQNYNSSMYNPSMYNPMRPGYY | not soluble
4 | MGSDKIHHHHHHMHHSHHLEIYEKLREKLNKAPIGLPKTVSGVEKELLSVLFDEEEAKIAVHMPFIRFTAEQLAERTGKSLEYVEKILNEMAKKGTVWKGEKDGQTYYRLFPVIVGFAETPFWPGPGKDPRQEKLARLWSQYRKEGFLDEIGDREHPIMRALPERDTISEKSEILPYEDAVKLVKERDYIAVGYCPCRVMARLVGEGCRHSIENCIHMGSVGKYMVEHGLGRRISADEAIEILRQSNREGLVHLTERSKHVATICNCCSDCCVFFKAVHEAKHPNTIAHSSYLATVDTSRCIACGICMLRCPMKAIKAKINREPASVDAEKCLGCGVCVPTCPMEAIELVERDELLELPDGMTYVQELLADKGRDPSGLF | not soluble
5 | MTEYLSVSALTKYIKYKFDQDPHLQSVLIKGELSNFKKHSSGHLYFNVKDKESVISAMMFKGNASKLGFEPKEGDEVLIEARVSVYERRGNYQIYVNKMQLDGIGNLYQKLELLKKKLKKEGYFNQSNKKLIPKYPKKIAVLTASTGAAIRDIHSTINNRYPLVEQIQISTLVQGTQARQDIIEKIQYADSLDVDTIIVGRGGGSIEDLWNFNEEDVVKTIFNCQTPIISAVGHETDFTLSDFVADVRAATPTQAAVIATPDQYELLQQIKQYEYTLSRYIKQYIEHQKKQLNHISSYYKFKQPSLLYDQQIQKRDELERQLNHLLNTKVEKSKHHLKLLQQSFNFKNLNQQITQEKQSIYQLHSRLSKIMSNNITNLKTVLKNKLESLNNLSPTNTMLRGYAIVNKDNEVVTSTHKLNENDQISLTMKDGSVDATVKKVRCNDE | not soluble
6 | MGSDKIHHHHHHMISNQILQNTIDGLKGITRTDLCVIDVEGKILAATFPNAEAFIEPAQAFVASPADSQVINGCQFFKVFDDHQLEYVLLAYGDSEDVYMIGKIASFQIQNLLVAYKERFDKDNFIKNLLLDNLLLVDIYNRAKKLHIDIEVRRVVFIVETNREKDGNELEKIRSLFGGKSKDFVTAVDEKNIIVVKELAENETYDDLRKTAEVILNLFRSEADGVHIAYGTVINELKEVSRSYKEARMALDVGKIFFEERNIIAYSQLGIGRLIYQLPIPLCKMFIKEIFDGKSPDDFDEEILSTINKFFENSLNVSETSRQLYIHRNTLVYRLDKLQKSTGLDLRVFEDAITFKIALMVVKYMKYMESMDY | not soluble
7 | MSLIEKLEEIFKKGSVTYYNSSYFFPKKIREDVTKLYAFVRVFDDLVDSVPQKIEEYYNLRKLYQLEKSGYNTGNIVLQNFVELARRKGFEDSWIDAFLDAMESDIYKKVYYSIEELLKYMYGSAEVVGLFMMKILDLHNDSMYYARMLGRAMQFLNFIRDVQEDLYLGRQYLPVEDMEKFGIDKMECNEGFIEFIRYEISRYFEFEREAEKGFKFIPARYLVPIKTASEMYKWSALRIKKSPCIVLSKKVKPRRTKIVITVIKNFAGVYLWRSLNPIEGHHHHHH | soluble
8 | SADPGPDPESESESVFPREVGLFADSYSEKSQFCFCGHVLTITQNFGSRLGVAARVWDAALSLCNYFESQNVDFRGKKVIELGAGTGIVGILAALQGGDVTITDLPLALEQIQGNVQANVPAGGQAQVRALSWGIDHHVFPANYDLVLGADIVYLEPTFPLLLGTLQHLCRPHGTIYLASKMRKEHGTESFFQHLLPQHFQLELAQRDEDENVNIYRARHREPRPA | not soluble
9 | MKALVAVSAVAVVALLGVSSAQADPEADPGAGEANYGGPPSSPRLVDHTEWAQWGSLPSLRVYPSQVGRTASRRLGMAAADAAWAEVLALSPEADTAGMRAQFICHWQYAEIRQPGKPSWNLEPWRPVVDDSEMLASGCNPGSPEESF | soluble
10 | MGSDKIHHHHHHMRVCAEHHVINTATGPMGTRVYRPAGPGSYPAILFYSEIFQETAPISRMATVLAGHGFVVLVPEIFHELNPAGTVLGYDDMGKDKGNSDKATKPLESHDSDTAAMVDFVRRQPWCQGKIGAMGVCIGGHLAYRAAVNPDVAAAFCLYATDIHSGTIPSQPGNDSLSRTRDIRGELYMVFGKQDPHVPGEGRRLIQHNLEQHGVNHSWLEVNAEHAFMRDGDARHDPALALVMYQSAIALFQRTL | not soluble
11 | MGSDKIHHHHHHMDQSFQVNLNRLRYFHAILEHGSIRAAAERLNTAPSVVSRQLQLLESEIGAPLFERRQHGMIATEAATLLVEYTHACRIGLEQFHESLHGELRGRVEIALTVGYVEDLMDSVITGFLHRHPHVAVELNVRTADGVVDDVLRKRAHIGLTYNPSLPPEIRECLSVEHPTFLAVAPDHPLAKRGEPLELRDAVRYPLALMPAPYYGVGQIVHTVAHAENIPLAPRLVTNSVPAMRRFVRSGNGVAFLTRLLVEDDLERGEIVALRMRNPLFNSPCGKVLVHNERALPRAANEILARIVRDLPSFKS | not soluble
12 | SAALTDVQRLQSRVEELERWVYGPGGTRGSRKVADGLVKVQVALGNIASKRERVKILYKKIEDLIKYLDPEYIDRIAIPEASKLQFILAEEQFILSQVALLEQVNALVPVLDSASIKAVPEHAARLQRLAQIHIQQQDQCVAITEESKALLEGYNKTTMLLSKQFVQWDELLCQLEAAKQVKPAEE | soluble
13 | MGSDKIHHHHHHMIITPDTLKALFTGFKKNFQDGLKMAESQYKEIATVIPSSTASNTYGWLGQWPAFREWVGDRVFQDMKAHGYAITNKHFESSVKVNRNDIEDDNVGIYAPMMTEMGRASAVHPDELVFALLKNAHATLCYDGQNFFDTDHPVYEKVDGTGQASTVSNIFAGSEAAWYLLDTTRALKPLIYQERKAKQFTAMTADTDEGVFMRNEYRYGVDGRCNVGLGFWQMAAKSQEKLDAAGFEKAYNAMVSLKGDGGRPLAIRPNVLLVPPALENAAKELVEGDRLANGAYNPNKGKAKVIVSPWLL | not soluble
14 | GSHMLITPRNIFRHELIGLSVRIARSVHRDIQGISGRVVDETRNTLRIEMDDGREITVPKGIAVFHFRTPQGELVEIDGRALVARPEERIKKKFRKP | soluble
15 | MPDIFQQEARGWLRCGAPPFAGAVAGLTTKHGGESKGPFASLNMGLHVGDDRTDVVNNRRRLAEWLAFPLERWVCCEQVHGADIQKVTKSDRGNGAQDFATAVPGVDGLYTDEAGVLLALCFADCVPIYFVAPSAGLVGLAHAGWRGTAGGIAGHMVWLWQTREHIAPSDIYVAIGPAIGPCCYTVDDRVVDSLRPTLPPESPLPWRETSPGQYALDLKEANRLQLLAAGVPNSHIYVSERCTSCEEALFFSHRRDRGTTGRMLAFIGRREEWT | soluble
16 | MCTGIKIISKTNDIFYGRTMDFTFDFFGNEDPIAPKIPTLIAQFPKGTVLNSQLNPWTAKYAFMGLAMSGTDQPANDGKTVSLAITDGINEAGLSGDIQYLMESSTAPAESLADRGLTPHIAEEVLAYILSNFESVDEVKVAFEKIGLLDQKFQLDSLGEVHFTLHWTINDKNNNSIVLQPTDNGAFVIYDSIGVVTNSPEYNYHLTNARNYIGMRNYAIKEPYTLKSGATLDPIEGGTSYGLLGIPGDFTSPSRFIRALYYSDNLQEFDSSEGIMQLYRAFQTVMIPRGIGHLGQSNSLSDFTHYWSGYDVTNLTMYVQPESTTSFTKYTLDPALTEVTTFAVSNELLLTDLNQ | not soluble
17 | VPWEDVFKSFDPNPLAAGTIAQVHRATLETGDRVVVKVQRPTARADIEQDLALFEMFAEKVGKRPALNQVINMEDVFKHLSTSLHRELDFRQEANNIERMRTVLADYDRLAVPSIHWDLS | not soluble
18 | MATTATRHQDSKLSEKAESILAGFKLNWMNLRDAETGKVLWQSTEDMADPKREHKAHVPKNLLKCRTVSREINFTSSVKIEKFRLEQRVYLKGTIIEEWYFDFGFVIPDSTNTWQNMIEAAPESQMFPPSVLSGNVVVETLFYDGDLLVSTSRVRLYYD | not soluble
19 | MKDRYLIIDGYNMIGQSQELSRIAQDNLEEAREQLLIAIANYNAVIADEVVCVFDAYEQSGAPTEYMYHGVKTIFTKEKETADSYIERYVYDLYDKHTRHITVVTSDMSEQHAIFGAGAYRVSSREMWRDLRENEISVSKKLDGFNEQKPRTRIELSNEILEEFEKLRRGDNHLEHHHHHH | not soluble
20 | MDKQIGFIGCGNMGMAMIGGMINKNIVSSNQIICSDLNTANLKNASEKYGLTTTTDNNEVAKNADILILSIKPDLYASIINEIKEIIKNDAIIVTIAAGKSIESTENAFNKKVKVVRVMPNTPALVGEGMSALCPNEMVTEKDLEDVLNIFNSFGQTEIVSEKLMDVVTSVSGSSPAYVYMIIEAMADAAVLDGMPRNQAYKFAAQAVLGSAKMVLETGIHPGELKDMVCSPGGTTIEAVATLEEKGLRTAIISAMQRCTQKSVELSGQTKKLEHHHHHH | soluble
21 | MSLNRNHPANGWPLALLLAATLALHGCNEPTAATAAPANTTRHGDYTPLTVQHKLGTTVISQLPQRTVALDMNEVDFLDQLGVPVAGMPKDFVPDFLARYKDAGQTADVGSIVQPNLERVHAARPDLILITSLQANHYDELSEMAPTLHFDVDYRDSETGHVAMVRQHLLSLGQVFGKQGLAQRKADALEAKLAQARSVTRDRPERALVVLHNNGAFSAFGVQSRYGFIFNDLGVKPATTTLDTGLHGQPISSEFIQQANPDILYVVDRTAVMEHRPMMTADTLDNPLLRQTNAWKHGRVVFVDPQAWYVTAASPTSLALIADDVIRGYQDEGHHHHHH | soluble
